31 molecules from article PMC10786891, “Massively parallel profiling of RNA-targeting CRISPR-Cas13d” can be followed below.

First the molecules themselves.
T1: EsCas13d, nuclease-dead (Eubacterium siraeum, UniProt B0MS50, R295A;H300A;R849A;H854A)
T1 sequence: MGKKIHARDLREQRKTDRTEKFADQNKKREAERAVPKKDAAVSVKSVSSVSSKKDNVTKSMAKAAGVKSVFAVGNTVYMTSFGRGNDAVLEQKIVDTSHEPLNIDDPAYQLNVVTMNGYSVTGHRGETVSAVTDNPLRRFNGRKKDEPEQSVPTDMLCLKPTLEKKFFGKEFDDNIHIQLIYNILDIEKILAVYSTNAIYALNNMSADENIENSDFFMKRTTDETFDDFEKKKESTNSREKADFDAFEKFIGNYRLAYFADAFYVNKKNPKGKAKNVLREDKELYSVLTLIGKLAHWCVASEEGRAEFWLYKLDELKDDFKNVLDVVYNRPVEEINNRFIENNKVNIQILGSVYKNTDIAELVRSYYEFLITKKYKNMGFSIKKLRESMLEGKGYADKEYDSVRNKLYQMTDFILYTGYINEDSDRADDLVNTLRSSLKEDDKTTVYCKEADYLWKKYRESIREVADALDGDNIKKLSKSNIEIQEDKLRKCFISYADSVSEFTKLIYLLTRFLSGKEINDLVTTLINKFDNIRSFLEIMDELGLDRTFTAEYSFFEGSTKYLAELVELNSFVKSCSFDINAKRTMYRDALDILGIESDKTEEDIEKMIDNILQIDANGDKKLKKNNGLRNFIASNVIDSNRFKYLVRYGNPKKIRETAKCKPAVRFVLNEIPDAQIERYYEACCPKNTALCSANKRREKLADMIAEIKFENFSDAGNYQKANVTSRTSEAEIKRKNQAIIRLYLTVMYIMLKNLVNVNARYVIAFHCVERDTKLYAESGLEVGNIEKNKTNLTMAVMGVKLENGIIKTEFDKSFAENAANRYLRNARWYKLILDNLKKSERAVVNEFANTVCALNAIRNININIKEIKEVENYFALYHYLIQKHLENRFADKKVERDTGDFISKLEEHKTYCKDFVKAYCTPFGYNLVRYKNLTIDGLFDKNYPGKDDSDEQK

B1: target 1 insU 3' of 14,insU 3' of 4 (mixed)
RNA 1: CACCCGUGCAAAAAUGCAGGGGUCUAAAACUGAGCGGAUAACCUCUCUAUGG
RNA 2: GGGAAUGGAUCCACAUCUACGAAUUCGUACCAUAGAGAUGGUUAUCCGCUUCACCGAGAUCGGAAGAGCACACGU
B2: target 1 insU 3' of 18,insU 3' of 9 (mixed)
RNA 1: B1 RNA 1
RNA 2: B1 RNA 2 with G35U, A36G, G37A, A38G, U39A, C46U, G48C, C49G, U50C
B3: target 1 U8G,G17C (mixed)
RNA 1: B1 RNA 1
RNA 2: GGGAAUGGAUCCACAUCUACGAAUUCGUACCAUACAGAGGUUAGCCGCUCACCGAGAUCGGAAGAGCACACGU
B4: target 1 C7G,U8A (mixed)
RNA 1: B1 RNA 1
RNA 2: B3 RNA 2 with C35G, G44A, C45G
B5: target 1 insG 3' of 8,insU 3' of 1 (mixed)
RNA 1: B1 RNA 1
RNA 2: B1 RNA 2 with U39G, G41U, U43A, A44U, U45G, U51C, C52A, A53U
B6: target 1 del8,del14 (mixed)
RNA 1: B1 RNA 1
RNA 2: GGGAAUGGAUCCACAUCUACGAAUUCGUACCAUAGAGGGUUACCGCUCACCGAGAUCGGAAGAGCACACGU
B7: target 1 insC 3' of 18,insG 3' of 4 (mixed)
RNA 1: B1 RNA 1
RNA 2: B1 RNA 2 with G35C, A36G, G37A, A38G, U39A, U50G
B8: target 1 G17A (mixed)
RNA 1: B1 RNA 1
RNA 2: B3 RNA 2 with C35A, G44U
B9: target 1 C7U,G15U (mixed)
RNA 1: B1 RNA 1
RNA 2: B3 RNA 2 with C35G, G37U, G44U, C45U
B10: target 1 insC 3' of 20,insA 3' of 10 (mixed)
RNA 1: B1 RNA 1
RNA 2: GGGAAUGGAUCCACAUCUACGAAUUCGUACCACUAGAGAGGUUAAUCCGCUCACCGAGAUCGGAAGAGCACACGU
B11: target 1 insU 3' of 22,insG 3' of 8 (mixed)
RNA 1: B1 RNA 1
RNA 2: B10 RNA 2 with C31U, A32C, C33A, A45U, U46G
B12: target 1 insU 3' of 7,insU 3' of 4 (mixed)
RNA 1: B1 RNA 1
RNA 2: B1 RNA 2 with U39G, G41U, U43A, A44U, U45C, C46U
B13: target 1 G13A,G15A (mixed)
RNA 1: B1 RNA 1
RNA 2: B3 RNA 2 with C35G, G37A, G39A, G44U
B14: target 1 insG 3' of 11,insG 3' of 11 (mixed)
RNA 1: B1 RNA 1
RNA 2: GGGAAUGGAUCCACAUCUACGAAUUCGUACCAUAGAGAGGUGGUAUCCGCUCACCGAGAUCGGAAGAGCACACGU
B15: target 1 G17A,A18U (mixed)
RNA 1: B1 RNA 1
RNA 2: B3 RNA 2 with A34U, C35A, G44U
B16: target 1 insG 3' of 7,insA 3' of 5 (mixed)
RNA 1: B1 RNA 1
RNA 2: B14 RNA 2 with G42U, G43A, A45C, U46G, C48G, G49A
B17: target 1 C6G,U10C (mixed)
RNA 1: B1 RNA 1
RNA 2: B3 RNA 2 with C35G, U42C, G44U, C46G
B18: target 1 A1C,G17A (mixed)
RNA 1: B1 RNA 1
RNA 2: B3 RNA 2 with C35A, G44U, A51C
B19: target 1 insC 3' of 10,insU 3' of 6 (mixed)
RNA 1: B1 RNA 1
RNA 2: B14 RNA 2 with G42U, G43C, U44A, A45U, U46C, C48U
B20: target 1 C7G,A14C (mixed)
RNA 1: B1 RNA 1
RNA 2: B3 RNA 2 with C35G, A38C, G44U, C45G
B21: target 1 A1U,G17A (mixed)
RNA 1: B1 RNA 1
RNA 2: B3 RNA 2 with C35A, G44U, A51U
B22: target 1 complement block 6-13 (mixed)
RNA 1: B1 RNA 1
RNA 2: B3 RNA 2 with C35G, G39C, G40C, U41A, U42A, A43U, G44A, C45G, C46G
B23: target 1 G5A,G12C (mixed)
RNA 1: B1 RNA 1
RNA 2: B3 RNA 2 with C35G, G40C, G44U, G47A
B24: target 1 C6A,U11A (mixed)
RNA 1: B1 RNA 1
RNA 2: B3 RNA 2 with C35G, U41A, G44U, C46A
B25: target 1 insG 3' of 19,insA 3' of 3 (mixed)
RNA 1: B1 RNA 1
RNA 2: B1 RNA 2 with A34G, G35A, A36G, G37A, A38G, U39A, U51A
B26: target 1 insA 3' of 13,insG 3' of 1 (mixed)
RNA 1: B1 RNA 1
RNA 2: B1 RNA 2 with U39G, G40A, U51C, C52A, A53G
B27: target 1 insA 3' of 22,insC 3' of 17 (mixed)
RNA 1: B1 RNA 1
RNA 2: B10 RNA 2 with C31A, A32C, C33A, A37C, G38A, A39G, G40A, U42G, A44U
B28: target 1 A9U,A16C (mixed)
RNA 1: B1 RNA 1
RNA 2: B3 RNA 2 with C35G, A36C, A43U, G44U
B29: target 1 del8,del19 (mixed)
RNA 1: B1 RNA 1
RNA 2: B6 RNA 2 with U33A, A34G, G35A, A36G, G37A
B30: target 1 A1G,G17A (mixed)
RNA 1: B1 RNA 1
RNA 2: B3 RNA 2 with C35A, G44U, A51G
B31: target 1 G5U,C7U (mixed)
RNA 1: B1 RNA 1
RNA 2: B3 RNA 2 with C35G, G44U, C45U, G47U

Changes are numbered by the printed parent chain. In names and notes the source's numbering stands.

Broadly, the Kd is the concentration at which binding is half-saturated.

The series addresses T1, EsCas13d, nuclease-dead. Put plainly: crRNA (strand 1, pre-loaded); Mg2+; 40 mM Tris-HCl pH 7.5, 150 mM NaCl, 6 mM MgCl2, 1 mM DTT, 0.1% Tween-20, 0.2 mg/ml BSA; 25 C; 10 min per concentration, then washed. To be noted: tags: His6-TwinStrep-SUMO cleaved; N-terminal SNAP kept (SNAP-Surface 488); label: 3' end held by stalled T7 RNA polymerase.
In the case of B1, the Kd amounted to 0.063 ± 0.013 µM.
Turning to B2, the affinity, expressed as Kd, was 0.049 ± 0.008 µM.
B3 displayed a Kd of 0.072 ± 0.015 µM.
Molecule B4 came in with a Kd of 0.00745 ± 0.00024 µM.
The result for B5 reads 0.0126 ± 0.0009 µM; that for B6, 0.0341 ± 0.0027 µM.
For the molecule B7, the Kd was 0.0357 ± 0.002 µM.
As to B8, the Kd was 0.0274 ± 0.0017 µM.
The result for B9 reads 0.0131 ± 0.001 µM; that for B10, 0.0101 ± 0.0004 µM; that for B11, 0.049 ± 0.004 µM.
Regarding B12, binding was put at a Kd of 0.0152 ± 0.0006 µM.
B13 yielded a Kd of 0.0103 ± 0.0008 µM.
B14 had a Kd of 0.086 ± 0.026 µM.
Turning to B15, binding was characterised by a dissociation constant (Kd) of 0.05 ± 0.012 µM.
For B16, binding was put at a Kd of 0.00733 ± 0.00033 µM.
In turn, B17 gave a Kd of 0.0142 ± 0.0004 µM.
The molecule B18 gave a Kd of approximately 0.045 µM.
As to B19, the affinity, expressed as Kd, was 0.046 ± 0.005 µM.
On to B20, for which the Kd was found to be 0.0335 ± 0.0029 µM.
Molecule B21 came in with a Kd of 0.036 ± 0.01 µM.
B22 gave a Kd of 0.092 ± 0.015 µM.
In turn, B23 showed a Kd of 0.0135 ± 0.0005 µM.
Regarding B24, the affinity, expressed as Kd, was 0.0281 ± 0.0017 µM.
In turn, B25 gave a Kd of 0.049 ± 0.005 µM.
Take B26: binding was characterised by a dissociation constant (Kd) of 0.00308 ± 0.00021 µM.
In turn, B27 came in with a Kd of 0.047 ± 0.019 µM.
As for B28, the Kd was 0.045 ± 0.006 µM.
For the molecule B29, the affinity, expressed as Kd, was 0.064 ± 0.007 µM.
With B30, the Kd came to 0.041 ± 0.008 µM.
Turning to B31, the Kd stood at 0.053 ± 0.006 µM.
